This note sets out measurements from patent US20080064059A1.

Test [1] addresses glycomyoglobin containing GalNAc-α-threonine at position 4 (myoglobin 4TAG mutant, C-terminal 6x His tag) (UniProt P02185). Put plainly: enzyme-linked lectin-binding assay (ELLA), immobilized myoglobin samples, biotinylated lectin, streptavidin-alkaline phosphatase, pNPP at 405 nm; reference: equivalent concentrations of tyrosine-myoglobin.
The target in test [2] is glycomyoglobin containing β-GlcNAc-serine at position 4 (Gly4TAG mutant myoglobin, C-terminal His6 tag) (UniProt P02185). In words: ELISA-like assay, 200 ng immobilized myoglobin, biotinylated BSII, streptavidin-alkaline phosphatase, absorbance at 405 nm; reference: wild-type myoglobin. Background: ELISA stands for enzyme-linked immunosorbent assay.
Chain of glycomyoglobin containing β-GlcNAc-serine at position 4 (Gly4TAG mutant myoglobin, C-terminal His6 tag) (P02185 other isoform, or with tags, fused parts or gaps mutant): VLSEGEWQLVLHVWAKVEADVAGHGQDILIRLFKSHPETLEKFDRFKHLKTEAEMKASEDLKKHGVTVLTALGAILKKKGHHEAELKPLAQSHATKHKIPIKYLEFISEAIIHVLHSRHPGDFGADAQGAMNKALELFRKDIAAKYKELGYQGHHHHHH

Chain of glycomyoglobin containing GalNAc-α-threonine at position 4 (myoglobin 4TAG mutant, C-terminal 6x His tag) (P02185 other isoform, or with tags, fused parts or gaps mutant): as above
Chain of Vicia Villosa lectin (VVL), biotinylated conjugate (P56625 whole entry): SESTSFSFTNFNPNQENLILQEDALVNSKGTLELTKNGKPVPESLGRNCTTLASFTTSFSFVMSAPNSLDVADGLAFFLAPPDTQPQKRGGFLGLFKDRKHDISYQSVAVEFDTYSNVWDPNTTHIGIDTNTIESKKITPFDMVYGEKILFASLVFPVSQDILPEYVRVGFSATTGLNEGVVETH

Consider “Dolichos Biflorus lectin (DBL), biotinylated conjugate (from UniProt P05045 23-275)”, for which, in test [1], the fold signal increase versus tyrosine-myoglobin was found to be 5 fold.
“Bandeiraea simplicifolia II (BSII) lectin, biotinylated”: the fold signal versus wild-type myoglobin in test [2] is more than 200 fold.
On to “Vicia Villosa lectin (VVL), biotinylated conjugate (from UniProt P56625 1-185)”, for which, in test [1], the fold signal increase versus tyrosine-myoglobin is 10 fold.
